B1: E3 ubiquitin-protein ligase RFWD3 (Homo sapiens), Q6PCD5 (parent)
chain: MAHEAMEYDVQVQLNHAEQQPAPAGMASSQGGPALLQPVPADVVSSQGVPSILQPAPAEVISSQATPPLLQPAPQLSVDLTEVEVLGEDTVENINPRTSEQHRQGSDGNHTIPASSLHSMTNFISGLQRLHGMLEFLRPSSSNHSVGPMRTRRRVSASRRARAGGSQRTDSARLRAPLDAYFQVSRTQPDLPATTYDSETRNPVSEELQVSSSSDSDSDSSAEYGGVVDQAEESGAVILEEQLAGVSAEQEVTCIDGGKTLPKQPSPQKSEPLLPSASMDEEEGDTCTICLEQWTNAGDHRLSALRCGHLFGYRCISTWLKGQVRKCPQCNKKARHSDIVVLYARTLRALDTSEQERMKSSLLKEQMLRKQAELESAQCRLQLQVLTDKCTRLQRRVQDLQKLTSHQSQNLQQPRGSQAWVLSCSPSSQGQHKHKYHFQKTFTVSQAGNCRIMAYCDALSCLVISQPSPQASFLPGFGVKMLSTANMKSSQYIPMHGKQIRGLAFSSYLRGLLLSASLDNTIKLTSLETNTVVQTYNAGRPVWSCCWCLDEANYIYAGLANGSILVYDVRNTSSHVQELVAQKARCPLVSLSYMPRAASAAFPYGGVLAGTLEDASFWEQKMDFSHWPHVLPLEPGGCIDFQTENSSRHCLVTYRPDKNHTTIRSVLMEMSYRLDDTGNPICSCQPVHTFFGGPTCKLLTKNAIFQSPENDGNILVCTGDEAANSALLWDAASGSLLQDLQTDQPVLDICPFEVNRNSYLATLTEKMVHIYKWE

Variants of: B1
Details: with rfa2_human RPA2, P15927
Sequence of rfa2_human RPA2, P15927 (P15927 whole entry): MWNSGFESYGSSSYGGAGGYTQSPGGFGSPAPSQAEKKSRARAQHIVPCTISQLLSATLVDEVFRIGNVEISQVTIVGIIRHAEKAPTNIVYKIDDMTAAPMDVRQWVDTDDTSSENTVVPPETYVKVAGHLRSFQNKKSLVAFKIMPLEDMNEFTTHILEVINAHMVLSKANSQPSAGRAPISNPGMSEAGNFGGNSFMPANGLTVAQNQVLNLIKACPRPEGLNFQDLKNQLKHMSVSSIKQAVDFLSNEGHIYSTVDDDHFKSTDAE

| Variant | effect of a mutation on the interaction |
| --- | --- |
| I639K | decreasing interaction strength |

Variants of: B1
Details: with rfa2_human RPA2, P15927
Remark: another data set of the same source

| Variant | effect of a mutation on the interaction |
| --- | --- |
| I639K | disrupting interaction strength |
